Data reported in PMC5224484 (Nucleic Acids Research, 2016).

T1: seleno-methionine labeled SRP72-PBD (L31M/L65M) (human, UniProt O76094 8-166, L31M | L65M, seleno-methionine labeled)
T1 sequence (looked up): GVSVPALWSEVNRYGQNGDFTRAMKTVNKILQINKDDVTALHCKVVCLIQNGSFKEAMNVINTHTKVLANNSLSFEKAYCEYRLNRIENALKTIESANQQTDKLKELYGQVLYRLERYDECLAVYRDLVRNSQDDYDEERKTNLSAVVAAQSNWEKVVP

T2: human SRP72 protein-binding domain (SRP72-PBD, 8-166) (human, UniProt O76094 8-166)
T2 sequence (looked up): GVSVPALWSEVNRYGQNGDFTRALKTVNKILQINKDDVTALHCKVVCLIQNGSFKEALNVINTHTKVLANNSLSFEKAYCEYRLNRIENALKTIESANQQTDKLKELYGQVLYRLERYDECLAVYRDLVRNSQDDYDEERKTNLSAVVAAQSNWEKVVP


Columns and labels:
[1] = biological target: T1, seleno-methionine labeled SRP72-PBD …; assay: crystal structure
[2] = biological target: T2, human SRP72 protein-binding domain …; assay: ITC

Binder | binding result [1] | Kd [2] [nM] | dH [2] [kcal/mol]
untagged human SRP68 protein-binding domain (SRP68-PBD, 546-614) (domain or fragment, UniProt Q9UHB9 546-614, looked up) SQVKDNKPLVERFETFCLDPSLVTKQANLVHFPPGFQPIPCKPLFFDLALNHVAFPPLEDKLEQKTKSG | binds |  | 
His6-SRP68-PBD (human SRP68 546-614 from pETtrx1a) (domain or fragment, UniProt Q9UHB9 546-614, looked up) SQVKDNKPLVERFETFCLDPSLVTKQANLVHFPPGFQPIPCKPLFFDLALNHVAFPPLEDKLEQKTKSG |  | 33 ± 11 | -15.7 ± 0.5
